To fix the notation:
B1: Signal peptide peptidase-like 2A (Mus musculus), Q9JJF9 (parent)
chain: MGLLHSLHAPAAALLWSCLLGLAAAQEAILHASTNGVSSLSKDYCMYYNNNWTRLPSSLENATSLSLMNLTGTALCHLSDIPPDGIRNKAVVVHWGPCHFLEKARIAQEGGAAALLIANNSVLIPSSRNKSTFQNVTVLIAVITQKDFKDMKETLGDDITVKMYSPSWPNFDYTLVVIFVIAVFTVALGGYWSGLIELENMKSVEDAEDRETRKKKDDYLTFSPLTVVVFVVICCIMIVLLYFFYRWLVYVMIAIFCIASSMSLYNCLSALIHRMPCGQCTILCCGKNIKVSLIFLSGLCISVAVVWAVFRNEDRWAWILQDILGIAFCLNLIKTMKLPNFMSCVILLGLLLIYDVFFVFITPFITKNGESIMVELAAGPFENAEKLPVVIRVPKLMGYSVMSVCSVPVSVLGFGDIIVPGLLIAYCRRFDVQTGSSIYYISSTIAYAVGMIITFVVLMVMKTGQPALLYLVPCTLITVSVVAWSRKEMKKFWKGSSYQVMDHLDYSTNEENPVTTDEQIVQQ

The variants in the first test derive from B1. The conditions noted are these: with lamp2_human LAMP2, P13473.
Sequence of lamp2_human LAMP2, P13473 (P13473 whole entry): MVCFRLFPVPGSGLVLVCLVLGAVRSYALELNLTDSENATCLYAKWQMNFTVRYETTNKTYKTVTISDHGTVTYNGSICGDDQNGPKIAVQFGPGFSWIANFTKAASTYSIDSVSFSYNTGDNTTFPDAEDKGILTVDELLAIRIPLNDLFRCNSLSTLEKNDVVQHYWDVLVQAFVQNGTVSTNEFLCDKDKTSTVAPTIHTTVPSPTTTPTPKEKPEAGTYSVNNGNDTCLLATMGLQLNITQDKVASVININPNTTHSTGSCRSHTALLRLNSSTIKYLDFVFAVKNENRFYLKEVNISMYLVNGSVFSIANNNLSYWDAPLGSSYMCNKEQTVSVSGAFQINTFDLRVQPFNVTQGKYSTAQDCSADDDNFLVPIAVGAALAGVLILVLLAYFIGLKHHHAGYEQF
For the variant Y506A, the “effect of a mutation on the interaction” value was “disrupting interaction”.

Variants of B1 are the subject of the next test. The conditions noted are these: with lamp2_human LAMP2, P13473. The source holds these as a separate data set.
Take Y498A: the “effect of a mutation on the interaction” value is reported as “disrupting interaction”.

Values taken from IntAct's records for PubMed 21896273.
